Source: US20230167182A1 (BIOSION, published 2023)
Blank lines part the entries; values can stand above or below the binder they belong to.

Assays:
[1] = molecular target: T1, recombinant human IL6R-his (human, UniProt P08887 20-365); experiment: SPR Biacore; antibody at 10 ug/ml captured by anti-human IgG on CM5, human IL6R in flow
T1 construct: In house made; the entry includes the C-terminal His tag; also called human IL6R-his protein
T1 sequence: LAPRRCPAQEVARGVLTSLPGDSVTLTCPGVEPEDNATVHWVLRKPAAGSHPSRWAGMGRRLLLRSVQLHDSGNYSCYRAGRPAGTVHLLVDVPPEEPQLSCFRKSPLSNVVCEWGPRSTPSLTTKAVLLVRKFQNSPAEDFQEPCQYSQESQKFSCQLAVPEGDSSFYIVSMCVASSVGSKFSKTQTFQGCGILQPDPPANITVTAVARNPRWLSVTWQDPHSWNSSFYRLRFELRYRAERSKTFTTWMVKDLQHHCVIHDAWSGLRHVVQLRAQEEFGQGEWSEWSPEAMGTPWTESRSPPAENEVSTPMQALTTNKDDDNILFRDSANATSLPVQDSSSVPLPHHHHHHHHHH
Procedure: (§1) Un-reacted moieties on the biosensor surface were blocked with ethanolamine. […] Then, serially diluted recombinant human IL6R-his (in house made, amino acid sequence set forth in SEQ ID NO: 44) or macaca IL6R-his protein (in house made, amino acid sequence set forth in SEQ ID NO: 45), starting at 100 nM with a 2-fold serial dilution in HBS-EP⁺ buffer (provided by Biacore), was flowed onto the chip at a flow rate of 30 μL/min. The antigen-antibody association kinetics was followed for 2 minutes and the dissociation kinetics was followed for 10 minutes. The association and dissociation curves were fit to a 1:1 Langmuir binding model using BIAcore evaluation software.
(§2) Cell supernatants containing humanized antibodies were harvested after six days in shaking flasks and directly subjected to BIAcore test following the protocol described above with modifications.

[2] = molecular target: T1, recombinant human IL6R-his; experiment: SPR Biacore; antibody captured by anti-human IgG on CM5, human IL6R-his at 100 nM
Procedure: as §1
The recombinant human IL6R-his (amino acid sequence set forth in SEQ ID NO: 44) at the concentration of 100 nM instead of serially diluted recombinant human IL6R-his, was flowed onto the chip at a flow rate of 30 μL/min.

human IL6R-Fc protein [3] = molecular target: T2, human IL6R-Fc protein (human, biotin-labeled in the ELISAs (sites not given)); experiment: benchmark blocking ELISA: antibody pre-incubated with biotin-labeled human IL6R-Fc, added to plate-coated Tocilizumab (competitor: Tocilizumab)
T2 construct: In house made; also called biotin-labeled human IL6R-Fc protein

[4] = molecular target: T1, recombinant human IL6R-his; experiment: SPR Biacore T200; antibody captured on Protein G chip, antigen in flow, 1:1 fit
Procedure: as §1

macaca IL6R-his protein = molecular target: T3, macaca IL6R-his protein (macaca mulatta); experiment: as above
T3 chain: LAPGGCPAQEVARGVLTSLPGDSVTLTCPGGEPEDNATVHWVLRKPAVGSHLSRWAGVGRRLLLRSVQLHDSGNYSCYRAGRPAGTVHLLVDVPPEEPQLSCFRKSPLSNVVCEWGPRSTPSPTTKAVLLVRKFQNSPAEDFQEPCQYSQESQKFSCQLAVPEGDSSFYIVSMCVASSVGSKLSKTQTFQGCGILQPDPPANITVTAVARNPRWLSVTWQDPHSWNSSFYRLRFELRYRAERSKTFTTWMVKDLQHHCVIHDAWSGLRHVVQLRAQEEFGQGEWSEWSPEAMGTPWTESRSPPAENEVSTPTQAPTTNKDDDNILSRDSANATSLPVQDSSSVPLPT
Procedure: as §1

human IL6R-Fc protein [5] = molecular target: T2, human IL6R-Fc protein; experiment: capture ELISA: antibody captured on anti-IgG F(ab')2 coated plate, then biotin-labeled human IL6R-Fc, streptavidin-HRP
Procedure: For the capture ELISA, 96-well micro plates were coated with 2 μg/ml AffiniPure Goat Anti-Mouse IgG, F(ab′)₂ fragment specific (Jackson ImmunoResearch Laboratories, Inc., Cat #115-005-072) in PBS, 100 μl/well, and incubated for 2 hours at 37° C. Plates were washed once with wash buffer (PBS+0.05% v/v Tween-20, PBST) and then blocked with 200 μl/well blocking buffer (5% w/v non-fatty milk in PBST) overnight at 4° C. […] Plates containing captured anti-IL6R antibodies were incubated with biotin-labeled human IL6R-Fc protein (prepared in house, SEQ ID NO: 43, 39.5 ng/ml in 2.5% w/v non-fatty milk in PBST, 100 μl/well) for 40 minutes at 37° C., washed 4 times, and incubated with streptavidin conjugated HRP (1:10000 dilution in PBST, Jackson ImmunoResearch Laboratories, Inc., Cat #016-030-084, 100 μl/well) for 40 minutes at 37° C. After a final wash, plates were incubated with 100 μl/well ELISA substrate TMB (InnoReagents, Cat #TMB-S-002). The reaction was stopped 3-10 minutes later at room temperature with 50 μl/well 1M H₂SO₄, and the absorbance of each well was read on a microplate reader using dual wavelength mode at 450 nm for TMB and 630 nm as the reference wavelength. Then the OD (450-630) values were plotted against antibody concentration. Data was analyzed using Graphpad Prism software and EC₅₀ values were reported.
For the capture ELISA, AffiniPure Goat Anti-Human IgG, F(ab′)₂ fragment specific (Jackson Immuno Research, Cat #109-005-097) was used instead of AffiniPure Goat Anti-Mouse IgG, F(ab′)₂ fragment specific, 100 μl/well.

[6] = molecular target: T1, recombinant human IL6R-his; experiment: SPR Biacore; antibody from diluted cell supernatant captured by anti-human IgG on CM5, human IL6R in flow
Procedure: as §1, §2

Kd [1]: 3810 pM | Kd [2]: 3260 pM | IC50 (human IL6R-Fc protein [3]): 770 pM | Kd [4]: 3260 pM | Kd (macaca IL6R-his protein): 3800 pM | EC50 (human IL6R-Fc protein [5]): 180 pM
B1: Tocilizumab (antibody, human IgG1, kappa, V domains shown)
VH: QVQLQESGPGLVRPSQTLSLTCTVSGYSITSDHAWSWVRQPPGRGLEWIGYISYSGITTYNPSLKSRVTMLRDTSKNQFSLRLSSVTAADTAVYYCARSLARTTAMDYWGQGSLVTVSS
VL: DIQMTQSPSSLSASVGDRVTITCRASQDISSYLNWYQQKPGKAPKLLIYYTSRLHSGVPSRFSGSGSGTDFTFTISSLQPEDIATYYCQQGNTLPYTFGQGTKVEIKR
notes: In house made; also called benchmark; Actemra

Kd [6]: 526 pM | koff [6]: 0.000195 s⁻¹ | kon [6]: 370000 M⁻¹ s⁻¹
B2: humanized antibody hu1H7-V5 (antibody, human IgG1, kappa, V domains shown)
VH: QVQLVQSGAEVKKPGASVKVSCKASGYTFTNYWMHWVRQAPGQGLEWIGEINPTNGRTNYNENFKSRVTLTVDTSTSTVYMELSSLRSEDTAVYYCARLNTHYVFDSWGQGTLVTVSS
VL: EIVLTQSPGTLSLSPGERATLSCSVSSSISSNYLHWYQQKPGLSPRLLISRTSTLASGIPARFSGSGSGTEYTLTISRMQSEDFAVYYCQQGSGIPFTFGQGTKLEIKR
notes: Human IgG1 / kappa

IC50 (human IL6R-Fc protein [3]): 394 pM | EC50 (human IL6R-Fc protein [5]): 83.4 pM
B3: mouse anti-IL6R monoclonal antibody 1H9 (antibody, V domains shown)
VH: QVQLQQPGAELVKPGASVKLSCKASGYTFTSYWMHWVKLRPGQGLEWIGEINPTNGRTNYYEKFKNRATLTADKSSSTAYMQLSSLTFEDSAVYFCAKFHYSRWYFDVWGTGTTVTVSS
VL: DIVMTQSQKFMSTSVGDRVSITCKASQNVGTAVVWYQQKPGQSPKLLINPASNRYTGVPDRFTGSGSGTDFTLTISNMQSEDLADYFCQQYSSYPLTFGAGTKLELK
notes: Mouse hybridoma mAb

Kd [1]: 604 pM | koff [1]: 0.000123 s⁻¹ | kon [1]: 204000 M⁻¹ s⁻¹ | Kd [2]: 400 pM | koff [2]: 5.21e-05 s⁻¹ | kon [2]: 130000 M⁻¹ s⁻¹
B4: Chimeric 1H7 (antibody, human IgG1, kappa, V domains shown)
VH: QVQLQQPGTELVKPGASVKLSCKASGYTFTNYWMHWVKQRPGQGLDWIGEINPTNGRTNYNENFKSKATLTVDKSSSTAYMQLSSLTSEDSAVYYCARLNTHYVFDSWGQGTTLTLSS
VL: EIVLTQSPTTLAASPGEKITFTCSVSSSISSNYLHWYQQKPGFSPKLLISRTSTLASGVPARFSGSGSGTSYSLTIGTMEAEDVATYYCQQGSGIPFTFGSGTKLELKR
notes: Mouse variable regions on human IgG1 / human kappa constant regions; also called chimeric antibody 1H7
